From publication doi:10.1101/2023.02.13.525685

How the values were obtained:
[1] = target: RjoGlgAb (GT4 glycosyltransferase GlgAb from Rhodococcus jostii RHA1) (Rhodococcus jostii RHA1); assay: SEC
[2] = target: RjoGlgAc (GT4 glycosyltransferase GlgAc from Rhodococcus jostii RHA1) (Rhodococcus jostii RHA1); assay: SEC

Substance | stoichiometry N [1] | stoichiometry N [2]
RjoGlgAb (GT4 glycosyltransferase GlgAb from Rhodococcus jostii RHA1) (enzyme) | > 15 subunits | 
RjoGlgAc (GT4 glycosyltransferase GlgAc from Rhodococcus jostii RHA1) (enzyme) |  | 2
